{"source": "patent US20230227571A1", "about": "(published 2023)", "assay_in_all_cases": "SPR (Biacore)", "key": {"[1]": {"target": "T1, human C5 (purified human complement C5, Complement Technology #A120; also C5 in normal human serum) (human, UniProt P01031 19-673; P01031 678-1676)", "T1 sequence (P01031 19-673, chain 1 of 2)": "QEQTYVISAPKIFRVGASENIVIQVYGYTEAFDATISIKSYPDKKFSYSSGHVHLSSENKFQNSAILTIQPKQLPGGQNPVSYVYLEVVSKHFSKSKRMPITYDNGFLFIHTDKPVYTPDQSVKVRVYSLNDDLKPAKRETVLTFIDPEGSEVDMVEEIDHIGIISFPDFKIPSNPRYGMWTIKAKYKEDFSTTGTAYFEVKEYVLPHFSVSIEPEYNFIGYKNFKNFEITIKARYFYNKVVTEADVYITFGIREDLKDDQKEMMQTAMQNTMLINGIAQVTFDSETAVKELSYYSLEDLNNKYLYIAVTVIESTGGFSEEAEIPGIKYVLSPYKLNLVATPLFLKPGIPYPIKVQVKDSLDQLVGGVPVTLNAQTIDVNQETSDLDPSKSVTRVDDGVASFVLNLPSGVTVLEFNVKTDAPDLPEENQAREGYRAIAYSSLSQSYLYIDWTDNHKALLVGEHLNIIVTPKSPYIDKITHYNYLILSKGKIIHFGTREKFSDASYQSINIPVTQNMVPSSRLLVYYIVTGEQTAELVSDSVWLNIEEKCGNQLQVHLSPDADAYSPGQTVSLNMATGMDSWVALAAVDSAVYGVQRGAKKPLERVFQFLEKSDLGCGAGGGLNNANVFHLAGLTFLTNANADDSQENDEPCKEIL", "T1 sequence (P01031 678-1676, chain 2 of 2)": "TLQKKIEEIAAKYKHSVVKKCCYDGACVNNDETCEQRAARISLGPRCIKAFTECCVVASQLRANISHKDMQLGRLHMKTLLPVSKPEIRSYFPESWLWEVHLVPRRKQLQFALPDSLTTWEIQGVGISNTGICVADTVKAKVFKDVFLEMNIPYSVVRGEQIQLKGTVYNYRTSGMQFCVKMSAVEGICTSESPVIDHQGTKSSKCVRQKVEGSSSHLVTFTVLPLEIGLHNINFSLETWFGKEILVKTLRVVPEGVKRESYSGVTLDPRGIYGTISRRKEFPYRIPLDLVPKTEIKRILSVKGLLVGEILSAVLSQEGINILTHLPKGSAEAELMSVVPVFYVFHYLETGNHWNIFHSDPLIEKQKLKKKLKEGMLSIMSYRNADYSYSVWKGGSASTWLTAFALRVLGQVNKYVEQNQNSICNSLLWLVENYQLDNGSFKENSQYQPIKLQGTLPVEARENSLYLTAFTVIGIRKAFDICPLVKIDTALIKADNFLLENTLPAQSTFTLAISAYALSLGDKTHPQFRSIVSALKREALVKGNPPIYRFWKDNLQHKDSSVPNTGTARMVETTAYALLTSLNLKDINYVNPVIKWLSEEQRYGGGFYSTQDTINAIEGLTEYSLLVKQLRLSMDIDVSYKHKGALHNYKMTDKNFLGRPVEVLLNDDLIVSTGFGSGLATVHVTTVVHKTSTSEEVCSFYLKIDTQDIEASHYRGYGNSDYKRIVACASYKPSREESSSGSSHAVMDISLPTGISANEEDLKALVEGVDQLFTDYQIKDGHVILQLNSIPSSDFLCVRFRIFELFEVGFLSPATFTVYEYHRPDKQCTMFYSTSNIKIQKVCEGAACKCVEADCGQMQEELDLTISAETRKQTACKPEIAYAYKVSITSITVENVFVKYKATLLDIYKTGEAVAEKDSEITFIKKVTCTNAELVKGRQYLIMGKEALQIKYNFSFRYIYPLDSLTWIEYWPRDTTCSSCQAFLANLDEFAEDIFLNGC"}, "[2]": {"target": "T1, human C5 (purified human complement C5, …)", "remark": "listed apart in the source"}, "[3]": {"target": "T1, human C5 (purified human complement C5, …)", "remark": "listed apart in the source"}, "[4]": {"target": "T1, human C5 (purified human complement C5, …)", "remark": "listed apart in the source"}, "[5]": {"target": "T1, human C5 (purified human complement C5, …)", "remark": "listed apart in the source"}}, "note": "Where two headings read alike, the source gives them in different places."}
{"binder": "anti-human C5 mAb 11D9 (antibody, V domains shown) VH: EVQLQQSGPEVVKPGASVKISCKASGYTFTDFYMNWVKQSHGKSLEWIGYINPNNGDTSYNQKFKGKATSTVDRSSNTAYMELRSLTSEDSAVYYCARLIFYGNWYFDVWGTGTTVTVSS VL: EIVLTQSPPTMAASPGEKITITCSASSSISSNYVHWYQQKPGFSPKLLIYRTSNLASGVPVRFSGSGSGTSYSLTIGTMEAEDVATYYCQQGTSIPWTFGGGTKVEINR", "values": [{"measurement": "Kd", "setting": "[1]", "value": 2.2, "unit": "nM"}]}
{"binder": "anti-human C5 mAb 9G6 (antibody, V domains shown) VH: QIQLVQSGPELKKPGETVKISCKASGYTFTEYPMHWVKQAPGKSFKWMGILYTDTGEPTYAEEFRGRFAFSLETSASTAYLQINNLKNEDTATYFCVHSGYVGYWGQGTTLTVSS VL: DIQMTQSPASLSASVGETVTFTCRASEIIYSYLVWYQQKQGKSPQLLVSNAKTLAEGVPSRFSGSGSGTQFSLKINSLQPEDFGSYYCQHYYGNPPTFGGGTKLEIKR", "values": [{"measurement": "Kd", "setting": "[2]", "value": 2.2, "unit": "nM"}]}
{"binder": "anti-human C5 mAb 11C5 (antibody, V domains shown) VH: EVQLVESGGGLVKPGGSLKLSCAASGFTFTTYAMSWVRQTPEKRLEWVATISAGGTYTYYSDNVKGRFTISRDNAKNNLYLQMSHLKSEDTAMFYCARDPDYYGRSPFAYWGQGTLVTVSA VL: EIVLTQSPATLSVTPGESVSLSCRASQSISNNLQWYQQKSHESPRLLIKYASQSISGIPSRFSGSGSGTDFTLSINSVETEDFGMYFCQQSNSWPLTFGGGTKVELKR", "values": [{"measurement": "Kd", "setting": "[3]", "value": 12.5, "unit": "nM"}]}
{"binder": "anti-human C5 mAb 8E1 (antibody, V domains shown) VH: QVQLKESGPGLVAPSQSLSITCTVSGFPLNNYGIHWVRQPPGKGLEWLAVIWSDGRTTYNSALNSRLSISKDNSKSQVFFKMNSLQTDDTAMYYCARHDGRGDYSMDYWGQGTSVTVSS VL: ELVMTQSPASLVVSLGQRATISCRASKGVSTSVYSYMHWYQQKPGQPPKLLIYLASNLESGVPARFSGSGSGTDFSLNIHPVEEEDAATYYCQQSGELPLTFGAGTKLELKR", "values": [{"measurement": "Kd", "setting": "[4]", "value": 0.427, "unit": "nM"}]}
{"binder": "anti-human C5 mAb 2G1 (antibody, V domains shown) VH: EVQLQQSGPELVKPGASVKISCKASGYTITDYNLDWVKQSHGKSLEWIGDISPNYGYTIYNQKFKDKATLTVDRSSSTAYMELRSLTSEDTAVYYCARRDIRYSGNSYKWYFDVWGTGTTVTVSS VL: DVQITQSPSYLAASPGETITINCRTSKSISKYLAWYQEKPGKTNKLLIYSGSTLQSGIPSRFRGSGSGTDFTLTISSLEPEDFAMYYCQQHNEYPYTFGGGTKLEIK", "values": [{"measurement": "Kd", "setting": "[5]", "value": 0.845, "unit": "nM"}]}
